Data as given in patent US20170066829A1 (published 2017).

Biological target: HER2 molecule (antigen of the affinity ELISA of FIG. 4) (UniProt P04626 23-652, limits assumed)
Assay: ELISA with dilutions of HRP-conjugated Hersintuzumab, sigmoidal OD 450 nm curves

B1: Hersintuzumab (antibody, V domains shown)
VH: EVKLVESGGGLVKPGGSLRLSCATSGFSFSSYYMYWVRQAPGKRLEWVAYISSGSEIYYSDSVKGRFTISRDSAKNTLYLQMNSLRAEDTAVYYCARLGDDGMDVWGQGTTVTVSS
VL: DIVMTQSPSSLSASVGDRVTITCRASQNVRTAVAWFQQKPGKAPKALIYLASNRHTGVPDRFTGSGSGTEFTLTISNLQPEDFATYFCLQHNSYPLTFGGGTKVEIK
notes: also called humanized anti-HER2 antibody; humanized monoclonal anti-HER2 antibody
B1 showed a Ka of 6e+08 M⁻¹.
